The subject of one test is troponin I. In words: Western blotting of troponin I phosphorylation in infected cardiomyocytes. Format: cell-based. The note with it: adult rat cardiomyocytes. The procedure: (§1) Recombinant adenovirus carrying empty vector, wild-type (WT) G147 inhibitor-1, or D147 inhibitor-1 was generated by using the Adeno-X expression system kit (Clontech, Mountain View, Calif.). All of the adenoviruses also expressed GFP as an indicator of transfection efficiency. Two hours after isolation and culture, myocytes seeded on coverslips or dishes were infected with adenovirus in diluted media, at a multiplicity of infection of 500, for 2 h before the addition of a suitable volume of culture media. Twenty-four hours later, the myocytes were washed in KHB including 1 mM Ca and harvested for quantitative immunoblotting or use in the experiments outlined below.
(§2) Alterations in the phosphorylation and/or total level of proteins were analyzed from whole heart homogenates, with the exception of MyBP-C, which was analyzed from a myofibril protein preparation, using Western blotting. 2-70 μg of protein were separated on polyacrylamide gels (6-15%) and transferred to nitrocellulose membranes. The membranes were incubated with primary antibodies, which were visualized by peroxidase-conjugated secondary antibodies (Amersham Biosciences) and enhanced chemiluminescence (Supersignal West Pico Chemiluminescent, Pierce). The bands were then quantified with densitometry, using ImageQuant 5.2 (GE Healthcare, Little Chalfont, UK). […]

The subject of a further test is PLN. In words: Western blotting of PLN phosphorylation in infected cardiomyocytes. In kind it is cell-based, rat.
A further test deals with adult rat cardiomyocytes. Briefly: Contractile parameter measurements in adenovirus-infected myocytes. The note with it: for contractility response to isoproterenol (fractional shortening, contraction, relaxation): adenovirus-infected cardiomyocytes; for cellular contractility (fractional shortening, contracting velocity, relaxing velocity): basal conditions, overexpression by adenovirus, 24 h. Format: cell-based. The procedure: Adult rat ventricular myocytes were isolated and cultured. Hearts from adult male Sprague-Dawley rats (8 wk old) were perfused with modified Krebs-Henseleit buffer (KHB) (118 mM NaCl, 4.8 mM KCl, 25 mM HEPES, 1.25 mM K2HPO4, 1.25 mM MgSO4, 11 mM glucose, 5 mM taurine, and 10 mM butanedione monoxime; pH 7.4) for 5 min. Subsequently, hearts were perfused with an enzyme solution [KHB containing 0.7 mg/ml collagenase type II (263 U/mg), 0.2 mg/ml hyaluronidase, 0.1% BSA, and 25 μM Ca]. Ten and 15 min later, 25 and 50 μM Ca, respectively, were added to the perfusion buffer, so that the Ca concentration was raised to 100 μM, and perfusion was continued for another 5 min. Finally, left ventricular tissue was excised, minced, pipette dissociated, and filtered through a […] screen. Cells were harvested and resuspended in KM including 1 mM Ca and 1% BSA. After a brief centrifugation, the cells were resuspended in KHB including 1.8 mM Ca and 1% BSA, centrifuged briefly again, and resuspended in Dulbecco's modified Eagle's medium containing 2 mg/ml BSA, 2 mM L-camitine, 5 mM creatine, 5 mM taurine, 1.8 mM Ca, 100 IU/ml penicillin, and 100 μg/ml streptomycin. Cells were then counted and plated on laminin-coated glass coverslips or dishes.
as §1
Myocytes that adhered to the coverslips were bathed in temperature (37° C.)—equilibrated KHB containing 1 mM Ca for 20 min. The myocyte suspension was then placed in a Plexiglas chamber, which was positioned on the stage of an inverted epifluorescence microscope (Diaphot 200; Nikon, Tokyo, Japan). Myocyte contraction was field-stimulated by a Grass S5 stimulator (0.5 Hz, square. waves; Grass Technologies, An Astro-Med, Inc., West Warwick, R.I., USA), and contractions were videotaped and digitized on a computer. A video edge motion detector (Crescent Electronics, Windsor, ON, Canada) was used to measure myocyte length and cell shortening, from which the percent fractional shortening (% FS) and maximal rates of contraction and relaxation (±dL/dt) were calculated. To investigate the response of adult rat cardiomyocytes to isoproterenol, a maximal concentration of isoproterenol (100 nM) was added to the KHB (including 1 mM Ca) in the Plexiglas chamber, and the above-mentioned measurements were repeated. All data were analyzed using software from Felix 1.1 software (Photon Technology International, Birmingham, N.J., USA) and IonWizard (IonOptix Corp., Milton, Mass., USA).

Another test concerns RyR. Briefly: Western blotting of RyR phosphorylation in infected cardiomyocytes. In kind it is cell-based. The note with it: adult rat cardiomyocytes. The procedure: as §1, §2
In test [1] the test system is major regulatory proteins related to cardiac calcium homeostasis. Briefly: Quantitative immunoblotting of calcium homeostasis regulatory proteins after adenoviral gene transfer. The note with it: 24 h post-transfection. In kind it is cell-based, rat.
Text: FIG. 2. Isolated adult rat cardiomyocytes were infected with adenoviruses expressing GFP as control (empty), G147 inhibitor-1 or D147 inhibitor-1. (A) Images of infected cardiomyocytes and GFP expression. (B) Representative western blots display expression levels of inhibitor-1, SERCA 2a, PLN, CSQ, and L-type Ca-channel (LTCC).
as §1

Substitutions are numbered along the chain they refer to.

`CC(C)NCC(O)c1ccc(O)c(O)c1` (centres unmarked) [isoproterenol, reference compound]: the “effect of isoproterenol treatment on troponin I phosphorylation” value in the test with troponin I is on record as “increased”. Besides, in the test with PLN (control cells), the “effect of isoproterenol on phosphorylation of PLN in control cells” value is given as “increased”. Moreover, the “effect of isoproterenol on contractility of control-virus cardiomyocytes” value with adult rat cardiomyocytes (100 nM isoproterenol, control virus) is listed as “enhanced contractility”. The “effect of isoproterenol treatment on RyR phosphorylation” value in the test on RyR is listed as “increased”.

B1: WT inhibitor-1: wild-type human protein phosphatase-1 inhibitor-1 (SEQ ID NO:13) overexpressed by recombinant adenovirus (protein, listed as Homo sapiens)
chain: MEQDNSPRKIQFTVPLLEPHLDPEAAEQIRRRRPTPATLVLTSDQSSPEIDEDRIPNPHLKSTLAMSPRQRKKMTRITPTMKELQMMVEHHLGQQQQGEEPEGAAESTGTQESRPPGIPDTEVESRLGTSGTAKKTAECIPKTHERGSKEPSTKEPSTHIPPLDSKGANSV
As for B1, the “level of phosphorylated PLN on serine 16 depressed” value with PLN (in the presence of isoproterenol) is recorded as around 50%. Further, in the test with PLN (in the presence of isoproterenol, versus control cells), the “phosphorylation of PLN” value is “similarly increased”. The “contractility response to isoproterenol (fractional shortening, contraction, relaxation)” value in the test with adult rat cardiomyocytes (100 nM isoproterenol) is on record as “enhanced contractility”. Further, the “cellular contractility (fractional shortening, contracting velocity, relaxing velocity)” value in the test on adult rat cardiomyocytes is reported as “did not alter”. The “levels of the major regulatory proteins related to cardiac calcium homeostasis” value in test [1] is on record as “did not alter”.

B2: D147 inhibitor-1: human inhibitor-1 with aspartic acid for glycine at position 147 (SEQ ID NO:14), overexpressed by recombinant adenovirus (protein, listed as Homo sapiens)
chain: B1 chain with G147D
Turning to B2, the “contractility response at lower isoproterenol dose” value in the test with adult rat cardiomyocytes (10 nM isoproterenol) is listed as “differences similar to those observed in 100 nM”. In addition, in the test on adult rat cardiomyocytes (100 nM isoproterenol), the “contractile parameters depressed compared with WT inhibitor-1-stimulated cells” value is 24-28% and the “contractility response to isoproterenol (fractional shortening, contraction, relaxation)” value is given as “significantly blunted”. The “cellular contractility (fractional shortening, contracting velocity, relaxing velocity)” value with adult rat cardiomyocytes is recorded as “did not alter”. Also, the “levels of the major regulatory proteins related to cardiac calcium homeostasis” value in test [1] is recorded as “did not alter”.

Values taken from US20110183329A1, “PROTEIN PHOSPHATASE-1 INHIBITOR-1 POLYMORPHISM AND METHODS OF USE” (priority 2008, published 2011).
